One molecule from patent publication US20200115460A1 (TEIJIN PHARMA, published 2020) can be followed below.

The target in assay [1] is T1, human IGF-I receptor (human, UniProt P08069 31-1367). The assay is described as follows: cell-based or functional assay.
The target in assay [2] is T2, guinea pig IGF-I receptor (guinea pig, UniProt P08069 31-1367 (human entry)). Kind of assay: cell-based or functional assay.
Assay [3] has as its target T1, human IGF-I receptor. Kind of assay: Cell ELISA, fixed cells expressing the receptor. Here is the method: In ELISA, antibody solutions (30 μL) adjusted to predetermined concentrations with 0.1% skimmed milk/3% BSA/PBS were added to respective wells and were subjected to reaction at room temperature for about 1 hour. After washing with a washing liquid (tris buffer containing Tween) twice, anti-mouse-IgG antibody-ALP conjugate solutions (30 μL) adjusted to predetermined concentrations with 0.1% skimmed milk/3% BSA/PBS were added to respective wells and were subjected to reaction at room temperature for about 1 hour. After washing with a washing liquid twice, 100 μL of a substrate (PNPP) was added to each well to start the reaction.
(In general: An ELISA detects its analyte on a solid surface through an enzyme-linked reagent.)

A further assay has as its target T3, hINSR[L1-L2]/hIGFIR (human).
T3 construct: Chimeric receptor on transfected P3U1 cells
Kind of assay: Cell ELISA, 10 nM antibody, fixed P3U1 cells expressing the chimera. Here is the method: (§1) The gene of hIGFIR[L1-L2]/hINSR as Substitution 1 is shown in SEQ ID NO: 23; the gene of hINSR[L1-L2]/hIGFIR as Substitution 2 is shown in SEQ ID NO: 24; the gene of hINSR[L1]/hIGFIR as Substitution 3 is shown in SEQ ID NO: 25; and the gene of hINSR[L2]/hIGFIR as Substitution 4 is shown in SEQ ID NO: 26. After the lipofection, the P3U1 cells were cultured at least overnight and were added to a 96-well plate (coated with poly-D-lysine) at a concentration of 0.8×10⁵ cells/well and immobilized with 10% buffered formalin (Mildform® 10 NM, Wako), followed by blocking with phosphate buffer containing 3% BSA. The plate was used in ELISA.
(§2) In ELISA, 30 μL of an antibody solution adjusted to 10 nM with 0.1% skimmed milk/3% BSA/PBS was added to each well and was subjected to reaction at room temperature for about 1.5 hours. After washing with a washing liquid twice, 30 μL of an anti-mouse-IgG antibody-HRP conjugate solution adjusted to 5 nM with 0.1% skimmed milk/3% BSA/PBS was added to each well and was subjected to reaction at room temperature for about 1 hour. After washing with a washing liquid twice, 50 μL of a substrate (TMB) was added to each well to start the reaction. After about 20 minutes, 50 μL of 0.5 M sulfuric acid was added to each well to stop the reaction. The absorbances at 450 nm and 550 nm were measured, and the difference between absorbance values at 450 nm and 550 nm was calculated. The avidity was calculated based on the difference between absorbance values at 450 nm and 550 nm for cells (Mock cells, SEQ ID NO: 22) transfected with a vector not containing the gene of each substitution as a standard value 1 (Table 3).

The target in a further assay is T4, hINSR[L1]/hIGFIR (human).
T4 construct: Chimeric receptor on transfected P3U1 cells
The assay is described as above. The method, then:
as §1, §2

A further assay has as its target T5, hINSR[L2]/hIGFIR (human).
T5 construct: Chimeric receptor on transfected P3U1 cells
The assay is described as above. The method, then:
as §1, §2

The target of the next assay is T6, hIGFIR[L1-L2]/hINSR (human).
T6 construct: Chimeric receptor on transfected P3U1 cells
Described as above. Here is the method: as §1, §2

For assay [4], the target named is T1, human IGF-I receptor. The assay is described as follows: Cell ELISA, 10 nM antibody, fixed P3U1 cells expressing the receptor. The method, then: (§3) After the lipofection, the P3U1 cells were cultured at least overnight and were added to a 96-well plate (coated with poly-D-lysine) at a concentration of 0.8×10⁵ cells/well and immobilized with 10% buffered formalin (Mildform® 10 NM, Wako), followed by blocking with phosphate buffer containing 3% BSA. The resulting plate was used for ELISA.
(§4) After washing with a washing liquid twice, anti-mouse-IgG antibody-HRP conjugate solutions (30 μL) adjusted to predetermined concentrations with 0.1% skimmed milk/3% BSA/PBS were added to respective wells and were subjected to reaction at room temperature for about 1 hour. After washing with a washing liquid twice, 50 μL of a substrate (TMB) was added to each well to start the reaction. After about 20 minutes, 50 μL of 0.5 M sulfuric acid was added to each well. The absorbances at 450 nm and 550 nm were measured, and the difference between absorbance values at 450 nm and 550 nm was calculated.

Assay [5] deals with T2, guinea pig IGF-I receptor. The description is as above. Here is the method:
as §3, §4

Assay [6] has as its target T7, cynomolgus monkey IGF-I receptor (cynomolgus monkey, UniProt P08069 31-1367 (human entry)).
T7 construct: Expressed on transfected P3U1 cells; also called NP_001248281
The description is as above. Here is the method:
as §3, §4

For a further assay, the target named is T8, rabbit IGF-I receptor (rabbit).
T8 construct: Expressed on transfected P3U1 cells; also called XP_017193273
The description is as above. Here is the method:
as §3, §4

The target in the next assay is T9, rat IGF-I receptor (rat, UniProt P24062 31-1370).
T9 construct: Expressed on transfected P3U1 cells; also called NP_494694
The description is as above. Here is the method: as §3, §4

The target in a further assay is T10, mouse IGF-I receptor (mouse, UniProt Q60751 31-1373).
T10 construct: Expressed on transfected P3U1 cells; also called NP_034643
The assay is described as above. Here is the method: as §3, §4

T9 sequence (P24062 31-1370 limits assumed): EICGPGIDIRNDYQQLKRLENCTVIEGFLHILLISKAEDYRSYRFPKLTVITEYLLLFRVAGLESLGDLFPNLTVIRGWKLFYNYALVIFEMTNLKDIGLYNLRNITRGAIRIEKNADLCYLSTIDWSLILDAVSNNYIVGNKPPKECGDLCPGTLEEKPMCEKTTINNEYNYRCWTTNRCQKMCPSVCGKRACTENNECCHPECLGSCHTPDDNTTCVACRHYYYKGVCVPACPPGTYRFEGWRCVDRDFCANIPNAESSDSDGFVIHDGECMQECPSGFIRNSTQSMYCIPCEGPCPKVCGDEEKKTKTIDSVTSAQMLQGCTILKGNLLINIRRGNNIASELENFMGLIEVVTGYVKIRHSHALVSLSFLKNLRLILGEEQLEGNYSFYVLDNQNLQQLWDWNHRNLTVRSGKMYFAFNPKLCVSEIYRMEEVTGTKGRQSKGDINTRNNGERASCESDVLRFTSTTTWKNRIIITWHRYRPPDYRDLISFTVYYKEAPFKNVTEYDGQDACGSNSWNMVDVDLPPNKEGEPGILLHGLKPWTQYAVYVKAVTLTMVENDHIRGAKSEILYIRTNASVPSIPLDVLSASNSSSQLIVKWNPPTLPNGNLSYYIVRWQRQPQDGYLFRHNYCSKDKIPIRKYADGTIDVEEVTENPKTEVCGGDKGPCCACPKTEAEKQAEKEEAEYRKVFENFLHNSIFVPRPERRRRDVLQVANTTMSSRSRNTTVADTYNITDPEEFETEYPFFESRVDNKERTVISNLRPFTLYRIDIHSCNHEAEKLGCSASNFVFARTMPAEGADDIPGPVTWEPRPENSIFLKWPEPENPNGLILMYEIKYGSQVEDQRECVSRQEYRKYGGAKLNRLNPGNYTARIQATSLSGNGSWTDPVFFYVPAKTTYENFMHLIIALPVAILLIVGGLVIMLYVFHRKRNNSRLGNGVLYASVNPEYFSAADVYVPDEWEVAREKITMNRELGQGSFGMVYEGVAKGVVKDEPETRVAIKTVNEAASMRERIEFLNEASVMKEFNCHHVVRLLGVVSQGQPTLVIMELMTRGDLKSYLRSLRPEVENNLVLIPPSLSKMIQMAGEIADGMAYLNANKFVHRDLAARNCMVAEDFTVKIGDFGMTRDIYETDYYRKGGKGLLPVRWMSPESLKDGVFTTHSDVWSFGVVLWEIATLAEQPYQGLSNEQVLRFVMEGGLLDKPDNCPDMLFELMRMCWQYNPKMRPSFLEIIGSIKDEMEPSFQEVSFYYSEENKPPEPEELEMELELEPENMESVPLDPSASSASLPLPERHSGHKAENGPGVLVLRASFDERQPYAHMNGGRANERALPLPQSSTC
T10 sequence (Q60751 other isoform, or with tags, fused parts or gaps limits assumed): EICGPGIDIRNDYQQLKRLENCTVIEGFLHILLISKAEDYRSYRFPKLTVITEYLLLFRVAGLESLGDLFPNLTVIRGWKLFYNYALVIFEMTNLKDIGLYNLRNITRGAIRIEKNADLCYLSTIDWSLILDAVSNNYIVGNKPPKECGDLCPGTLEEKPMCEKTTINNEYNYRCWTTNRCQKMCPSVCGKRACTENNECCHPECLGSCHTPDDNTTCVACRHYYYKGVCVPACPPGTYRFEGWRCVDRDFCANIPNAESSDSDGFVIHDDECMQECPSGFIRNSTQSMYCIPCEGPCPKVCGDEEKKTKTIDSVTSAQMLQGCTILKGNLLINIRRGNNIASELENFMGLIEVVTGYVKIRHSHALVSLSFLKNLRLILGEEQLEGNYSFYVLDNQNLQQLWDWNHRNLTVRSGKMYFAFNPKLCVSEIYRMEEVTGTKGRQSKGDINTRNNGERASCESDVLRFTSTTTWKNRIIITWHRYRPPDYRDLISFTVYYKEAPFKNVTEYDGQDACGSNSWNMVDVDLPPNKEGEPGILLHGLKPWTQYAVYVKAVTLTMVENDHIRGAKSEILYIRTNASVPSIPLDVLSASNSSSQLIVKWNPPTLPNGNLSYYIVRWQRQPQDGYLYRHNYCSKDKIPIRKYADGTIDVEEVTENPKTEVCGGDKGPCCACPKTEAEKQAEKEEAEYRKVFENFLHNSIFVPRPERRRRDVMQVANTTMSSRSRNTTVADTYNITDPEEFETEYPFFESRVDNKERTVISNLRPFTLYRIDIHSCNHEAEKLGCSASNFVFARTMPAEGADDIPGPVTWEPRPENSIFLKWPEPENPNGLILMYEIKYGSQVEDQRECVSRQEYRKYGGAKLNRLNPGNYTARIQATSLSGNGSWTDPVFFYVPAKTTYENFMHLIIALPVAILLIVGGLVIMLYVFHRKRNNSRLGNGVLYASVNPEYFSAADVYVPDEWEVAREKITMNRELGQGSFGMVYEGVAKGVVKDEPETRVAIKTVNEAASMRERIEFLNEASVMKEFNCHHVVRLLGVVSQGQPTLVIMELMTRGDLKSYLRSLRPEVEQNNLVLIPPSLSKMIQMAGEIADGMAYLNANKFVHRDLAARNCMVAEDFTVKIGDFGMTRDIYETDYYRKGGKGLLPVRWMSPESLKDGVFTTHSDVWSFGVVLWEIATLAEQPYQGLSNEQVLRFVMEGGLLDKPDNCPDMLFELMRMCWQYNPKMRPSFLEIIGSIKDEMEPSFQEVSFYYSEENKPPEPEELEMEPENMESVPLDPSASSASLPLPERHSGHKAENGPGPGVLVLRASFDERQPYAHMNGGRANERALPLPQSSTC
T8 sequence (chain, as listed by the source limits assumed): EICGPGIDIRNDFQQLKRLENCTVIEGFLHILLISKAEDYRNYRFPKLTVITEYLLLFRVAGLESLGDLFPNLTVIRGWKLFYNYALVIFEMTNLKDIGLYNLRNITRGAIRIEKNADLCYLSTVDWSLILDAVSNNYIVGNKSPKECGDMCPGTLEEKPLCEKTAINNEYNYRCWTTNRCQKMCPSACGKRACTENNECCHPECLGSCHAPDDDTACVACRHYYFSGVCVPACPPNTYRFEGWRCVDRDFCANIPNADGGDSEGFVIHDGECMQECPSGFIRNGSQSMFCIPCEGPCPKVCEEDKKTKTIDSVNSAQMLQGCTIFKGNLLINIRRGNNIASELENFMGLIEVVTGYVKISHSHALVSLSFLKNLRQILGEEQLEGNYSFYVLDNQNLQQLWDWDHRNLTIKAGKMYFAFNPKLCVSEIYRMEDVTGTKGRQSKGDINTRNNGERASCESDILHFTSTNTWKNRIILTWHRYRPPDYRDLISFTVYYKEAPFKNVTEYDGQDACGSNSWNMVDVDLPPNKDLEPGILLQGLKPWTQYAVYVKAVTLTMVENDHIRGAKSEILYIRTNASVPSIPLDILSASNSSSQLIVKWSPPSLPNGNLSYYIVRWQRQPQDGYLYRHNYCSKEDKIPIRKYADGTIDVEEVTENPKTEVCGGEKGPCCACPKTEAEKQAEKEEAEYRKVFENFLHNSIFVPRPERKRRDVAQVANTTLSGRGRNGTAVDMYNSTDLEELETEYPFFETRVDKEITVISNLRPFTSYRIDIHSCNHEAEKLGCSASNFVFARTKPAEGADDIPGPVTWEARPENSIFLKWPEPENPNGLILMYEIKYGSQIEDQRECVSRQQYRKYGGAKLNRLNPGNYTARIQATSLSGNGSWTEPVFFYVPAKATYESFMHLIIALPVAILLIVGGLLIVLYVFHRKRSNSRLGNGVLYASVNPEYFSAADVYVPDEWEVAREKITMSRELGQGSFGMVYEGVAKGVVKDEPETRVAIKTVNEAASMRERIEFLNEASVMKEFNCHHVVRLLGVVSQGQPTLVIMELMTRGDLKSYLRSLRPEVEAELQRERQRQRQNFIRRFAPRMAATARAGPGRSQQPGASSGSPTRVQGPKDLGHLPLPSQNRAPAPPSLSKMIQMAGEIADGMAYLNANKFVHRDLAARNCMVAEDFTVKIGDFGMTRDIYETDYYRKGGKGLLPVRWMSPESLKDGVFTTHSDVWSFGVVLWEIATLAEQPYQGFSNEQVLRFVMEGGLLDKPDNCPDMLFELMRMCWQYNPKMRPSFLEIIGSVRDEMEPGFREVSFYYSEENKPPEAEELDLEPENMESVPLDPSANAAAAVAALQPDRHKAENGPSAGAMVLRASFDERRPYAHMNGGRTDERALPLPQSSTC

B1: IGF11-16 (antibody, mouse IgG1, kappa, V domains shown)
VH: QIQLQQPGAELVKPGASVKLSCKAPGYTFTSYWMHWVKQRPGQGLEWIGETNPSNSVTNYNEKFKSKATLTVDKSSSTAYMQLSSLTSEDSAVYYCTIGRGRGFAYWGQGTLVTVSA
VL: DIQMNQSPSSLSASLGDTITITCRASQNINFWLSWCQQKPGNIPKLLIYKASNLHTGVPSRFSGSGSGTDFTLTISSLQPEDIATYYCLQGQSYPYTFGGGTKLEIKR
notes: no cleavage site is stated; also called IGF-I receptor agonist antibody; IGF11-16 antibody
For B1, in the assay with human IGF-I receptor [1], the “EC50 of the myoblast proliferative activity, human myoblasts” value is 4 pM. In addition, the “EC50 of the myoblast proliferative activity, guinea pig myoblasts” value in [2] worked out at 4 pM. The “avidity (absorbance difference 405-550 nm, Mock cells = 1) at 0.5 nM” value in the assay with human IGF-I receptor [3] was 2.9 fold of Mock cells. Moreover, the “avidity (absorbance difference 405-550 nm, Mock cells = 1) at 5 nM” value with human IGF-I receptor [3] was 3.7 fold of Mock cells. For the same molecule, the “Avidity (absorbance difference 450-550 nm, Mock cells = 1)” value with hINSR[L1-L2]/hIGFIR was 1.5 fold of Mock cells; with hINSR[L1]/hIGFIR, 5.7 fold of Mock cells; with hINSR[L2]/hIGFIR it was 5.6 fold of Mock cells; in the assay with hIGFIR[L1-L2]/hINSR it was 5.5 fold of Mock cells; with human IGF-I receptor [4] it was 5.4 fold of Mock cells; in assay [5] it was 5.3 fold of Mock cells. The “Avidity (absorbance difference 450-550 nm, Mock cells = 1)” value in assay [6] is 5.4 fold of Mock cells; with rabbit IGF-I receptor, 5.4 fold of Mock cells; with rat IGF-I receptor, 1 fold of Mock cells; with mouse IGF-I receptor it was 0.9 fold of Mock cells.
